From patent US6261760A, “Regulation of the cell cycle by sterols” (priority 1999, dated 2001)

System: LDL FC uptake by fibroblast monolayers
Assay: Effects of metabolic inhibitors on uptake of 3H-cholesterol from LDL (Example 1)
Details: cells pretreated with proteinase K; 4 experiments

B1: proteinase K: proteinase K pretreatment of cells (protein, UniProt P06873 106-384, looked up)
Proteinase K: AAQTNAPWGLARISSTSPGTSTYYYDESAGQGSCVYVIDTGIEASHPEFEGRAQMVKTYYYSSRDGNGHGTHCAGTVGSRTYGVAKKTQLFGVKVLDDNGSGQYSTIIAGMDFVASDKNNRNCPKGVVASLSLGGGYSSSVNSAAARLQSSGVMVAVAAGNNNADARNYSPASEPSVCTVGASDRYDRRSSFSNYGSVLDIFGPGTSILSTWIGGSTRSISGTSMATPHVAGLAAYLMTLGKTTAASACRYIADTANKGDLSNIPFGTVNLLAYNNYQA
  inhibition of uptake of 3H-FC LDL label: 7±6%
